Reference: patent US5444041A, “Convertible microemulsion formulations” (Ibah, Inc., priority 1992, dated 1995)

What was measured:
[1] = Percent activity of horseradish peroxidase (OPD assay, 492 nm) after storage at 50° C.; assay type: physicochemical
Method: In Example 10, the protein horseradish peroxidase (HRP), was stored for given times and temperatures, then assayed in vitro, as shown in this example.
After storage for the specified time at 50° C., the microemulsion was then converted to an o/w emulsion by the addition of water. This was achieved by pipetting 30 μL of the microemulsion containing the horseradish peroxidase enzyme into 970 μL of 0.9 wt. % saline (NaCl) solution.
After conversion, the emulsion was then assayed for activity. This activity was compared with the activity of stock solutions of HRP which had been maintained at 50° C. for the same time and then pipetted into saline (30 μL into 970 μL of saline) in the same manner as the microemulsion above. The stock HRP was first diluted to the same HRP concentration as in the aqueous phase of the converted microemulsion.
The assay was carried out as follows:
1. Set spectrophotometer at 492 nm and 25° C.
2. Into the cuvette, pipet 2.97 mL OPD (O-phenylene diamine) buffer solution (1 tab.→26 mL)
3. Establish blank at 492 nm.
4. Into the cuvette, pipet 25 μL diluted control HRP solution. Mix and record the increase in absorbance at 492 nm for 5 minutes.
5. Same procedure is followed for microemulsion w/HRP solution. OPD=O-phenylene diamine
Percent activity was determined by using the following equation: [formula]

[2] = rat, in vivo
Method: A series of experiments was carried out using rats with the w/o microemulsion of this invention to evaluate them as a vehicle for the delivery of the human growth hormone, hGH. The body fluids of the rats served to convert the microemulsion to an o/w emulsion which activated the drug and promoted drug uptake across the mucosal membrane of the rat colon.
The rats were approximately 100 grams and were fasted for 24 hours prior to testing.
The injected group, Group C, received the extracted hGH in a buffer solution at the human equivalent dose of 0.05 mg/kg body weight. The two rectal administration groups, Groups A and B, received ten times the human equivalent dose.
The rats were anaesthetized just prior to dosing. Suppositories (Group A) and the buffer solution (Group B) administered rectally were sealed in the rectum by a plug and liquid cement. Group C animals were injected subcutaneously (SQ). After administering the dosage, serum hGH levels were determined at 30, 60, 120, 180, 240, and 300 minutes. […] The blood was centrifuged and the serum assayed by hGH ELISA (Medix Lab, Foster City, Calif.) for quantitation of the extracted growth hormone.
The AUC (area under the curve) for both routes of administration was determined using the trapezoid rule (M. Gibaldi, Biopharmaceutics and Clinical Pharmacokinetics, Lea and Febiger, Philadelphia, Pa., 1984, pp. 315-16). […]

Spraque-Dawley rats = test: Rectal instillation of calcitonin microemulsions, serum Ca+2 in rats; assay type: in vivo, rat
Method: A series of experiments was carried out in rats using the w/o microemulsions of this invention to evaluate them as a vehicle for the rectal delivery of the peptide calcitonin, (used in the treatment of hypercalcemia by lowering Ca++ serum levels), whereby the body fluids of the rat would serve to convert the microemulsion to an o/w emulsion and thus release the calcitonin.
Formulations were produced which ranged from 3% to 15% (v/v) aqueous phase and which ranged from liquids to gels at room temperature. The formulations contained, in addition to the aqueous phase, one to three oils and a blend of two emulsifiers. […] Three formulations with different oil blends were chosen for biological evaluation in juvenile, male rat model (Spraque-Dawley rats; 140-170 gm).
Three w/o microemulsion formulations were tested which contained 3% v/v aqueous phase volume, and varying amounts of calcitonin/ml of emulsion. Two, Formulations A and B below, were formulated as liquids; the third microemulsion (Formulation C) was formulated in semi-solid (suppository) form by addition of a high-melting coconut oil to the microemulsion. […]
Serum was prepared from each blood sample and serum Ca^+2 (free ionized calcium) levels were determined using a Beckman calcium clinical assay kit.

## horseradish peroxidase [Control HRP]
[1]; Time 0 hours, converted with saline before assay
  % Activity: 100%
[1]; Time 3 hours
  % Activity: 76%
[1]; Time 6 hours
  % Activity: 73%
[1]; Time 24 hours
  % Activity: 20%
[1]; Time 27 hours
  % Activity: 20%
[1]; Time 48 hours
  % Activity: 11%

## human growth hormone [hGH in buffer]
[2]
  uptake of the drug: no uptake of the drug

## calcitonin [Saline]
Spraque-Dawley rats
  serum calcium response to rectal administration (in words): no significant response

## human growth hormone [Group C]
[2]
  AUC (area under the curve), trapezoid rule: approximately 24.5 ng-hr/ml
